According to paper doi:10.1101/2025.09.11.674065:

Molecular target: His6-AstR (Acinetobacter baumannii ATCC 17978VU)
Assay: SEC; size exclusion chromatography with standard curves; purified His6-AstR; Size Exclusion Buffer 50 mM Tris, 300 mM NaCl, pH 8

Question: How did the stoichiometry N turn out when His6-AstR (natural protein) was run?
Answer: Its stoichiometry N is 2.
